Residue numbers refer to the chain shown, from its start.
B1: VH2/VK2: humanized anti-EphA5 antibody, VH SEQ ID NO:3, VL SEQ ID NO:10 (antibody, V domains shown)
VH: EVTLVESGGGLVQPGGSLKLSCAASGFTFSTFGIHWVRQAPGKGLEWVAYISGASTTIYYADTVKGRFTISRDNSKNTLYLQMNSLRSEDTAMYYCARYGTSFPYGLDYWGQGTLVTVSS
VL: DIVMTQSPDSLAVSLGERATINCKASQSVDYDGDSYMNWYQQKPGKAPKLLIYGASNLESGIPDRFSGSGSGTDFTLTISRLEPEDAASYYCQQSNEDPFTFGQGTKLEIK
B2: VH2/VK4: humanized anti-EphA5 antibody, VH SEQ ID NO:3, VL SEQ ID NO:12 (antibody, V domains shown)
VH: B1 VH
VL: B1 VL with A25S
B3: VH2/VK5: humanized anti-EphA5 antibody, VH SEQ ID NO:3, VL SEQ ID NO:13 (antibody, V domains shown)
VH: B1 VH
VL: B1 VL with A25S, S89V
B4: VH3/VK1: humanized anti-EphA5 antibody, VH SEQ ID NO:4, VL SEQ ID NO:9 (antibody, V domains shown)
VH: B1 VH with T3Q
VL: B1 VL with D9G, P84E
B5: VH3/VK2: humanized anti-EphA5 antibody, VH SEQ ID NO:4, VL SEQ ID NO:10 (antibody, V domains shown)
VH: B1 VH with T3Q
VL: B1 VL
B6: VH3/VK3: humanized anti-EphA5 antibody, VH SEQ ID NO:4, VL SEQ ID NO:11 (antibody, V domains shown)
VH: B1 VH with T3Q
VL: B1 VL with S89V
B7: VH3/VK5: humanized anti-EphA5 antibody, VH SEQ ID NO:4, VL SEQ ID NO:13 (antibody, V domains shown)
VH: B1 VH with T3Q
VL: B1 VL with A25S, S89V
B8: VH4/VK5: humanized anti-EphA5 antibody, VH SEQ ID NO:5, VL SEQ ID NO:13 (antibody, V domains shown)
VH: B1 VH with T3Q, S88A, M93V
VL: B1 VL with A25S, S89V
B9: VH5/VK5: humanized anti-EphA5 antibody, VH SEQ ID NO:6, VL SEQ ID NO:13 (antibody, V domains shown)
VH: B1 VH with T3Q, T63S, S88A, M93V
VL: B1 VL with A25S, S89V
B10: VH6/VK1: humanized anti-EphA5 antibody, VH SEQ ID NO:7, VL SEQ ID NO:9 (antibody, V domains shown)
VH: B1 VH with T3Q, Y50S, T63S, S88A, M93V
VL: B1 VL with D9G, P84E
B11: VH6/VK2: humanized anti-EphA5 antibody, VH SEQ ID NO:7, VL SEQ ID NO:10 (antibody, V domains shown)
VH: B1 VH with T3Q, Y50S, T63S, S88A, M93V
VL: B1 VL
B12: VH6/VK3: humanized anti-EphA5 antibody, VH SEQ ID NO:7, VL SEQ ID NO:11 (antibody, V domains shown)
VH: B1 VH with T3Q, Y50S, T63S, S88A, M93V
VL: B1 VL with S89V
B13: VH1/VK1: humanized anti-EphA5 antibody, VH SEQ ID NO:2, VL SEQ ID NO:9 (antibody, V domains shown)
VH: B1 VH with L18R, L115S
VL: B1 VL with D9G, P84E
B14: VH1/VK2: humanized anti-EphA5 antibody, VH SEQ ID NO:2, VL SEQ ID NO:10 (antibody, V domains shown)
VH: B1 VH with L18R, L115S
VL: B1 VL
B15: VH2/VK1: humanized anti-EphA5 antibody, VH SEQ ID NO:3, VL SEQ ID NO:9 (antibody, V domains shown)
VH: B1 VH
VL: B1 VL with D9G, P84E
B16: VH2/VK3: humanized anti-EphA5 antibody, VH SEQ ID NO:3, VL SEQ ID NO:11 (antibody, V domains shown)
VH: B1 VH
VL: B1 VL with S89V
B17: VH1/VK3: humanized anti-EphA5 antibody, VH SEQ ID NO:2, VL SEQ ID NO:11 (antibody, V domains shown)
VH: B1 VH with L18R, L115S
VL: B1 VL with S89V
B18: VH1/VK4: humanized anti-EphA5 antibody, VH SEQ ID NO:2, VL SEQ ID NO:12 (antibody, V domains shown)
VH: B1 VH with L18R, L115S
VL: B1 VL with A25S
B19: VH1/VK5: humanized anti-EphA5 antibody, VH SEQ ID NO:2, VL SEQ ID NO:13 (antibody, V domains shown)
VH: B1 VH with L18R, L115S
VL: B1 VL with A25S, S89V
B20: VH4/VK1: humanized anti-EphA5 antibody, VH SEQ ID NO:5, VL SEQ ID NO:9 (antibody, V domains shown)
VH: B1 VH with T3Q, S88A, M93V
VL: B1 VL with D9G, P84E
B21: VH4/VK2: humanized anti-EphA5 antibody, VH SEQ ID NO:5, VL SEQ ID NO:10 (antibody, V domains shown)
VH: B1 VH with T3Q, S88A, M93V
VL: B1 VL
B22: VH5/VK1: humanized anti-EphA5 antibody, VH SEQ ID NO:6, VL SEQ ID NO:9 (antibody, V domains shown)
VH: B1 VH with T3Q, T63S, S88A, M93V
VL: B1 VL with D9G, P84E
B23: VH6/VK4: humanized anti-EphA5 antibody, VH SEQ ID NO:7, VL SEQ ID NO:12 (antibody, V domains shown)
VH: B1 VH with T3Q, Y50S, T63S, S88A, M93V
VL: B1 VL with A25S
B24: VH6/VK5: humanized anti-EphA5 antibody, VH SEQ ID NO:7, VL SEQ ID NO:13 (antibody, V domains shown)
VH: B1 VH with T3Q, Y50S, T63S, S88A, M93V
VL: B1 VL with A25S, S89V

target: T1, rhEphA5 antigen (Homo sapiens, UniProt P54756); experiment: ka (1/Ms)
T1 construct: purchased R and D systems 3036-A5
Description: (§1) Table printed on a drawing sheet, FIG. 13
Head of the field: ka (1/Ms)
(§2) The patent's description of the figure: FIG. 13 is a table illustrating the single cycle kinetic parameters of chimeric (VH0/VK0) and humanized 11C12 variants (tested as cell culture supernatants) binding to rhEphA5 antigen as determined using the Biacore T200. The relative KD was calculated by dividing the KD of the humanized variant by that of the VH0/VK0 (top row) assayed in the same experiment. The variants marked with ‘*’ have KD values that are within two-fold of, or are better than, the chimeric antibody. The chimeric and selected variants marked in ‘#’ were identified as the main leads for purification. […]
(§3) Where the first naming reader finds the target: description_of_the_figure: humanized 11C12 variants (tested as cell culture supernatants) binding to rhEphA5 antigen as determined using the Biacore T200

Point of comparison: B4, ka 1.39e+06 M⁻¹ s⁻¹. Against it:
- B1 — within 1.5-fold, 1.3e+06 M⁻¹ s⁻¹
- B2 — far lower, 1.37e-06 M⁻¹ s⁻¹
- B3 — within 1.5-fold, 1.34e+06 M⁻¹ s⁻¹
- B5 — within 1.5-fold, 1.34e+06 M⁻¹ s⁻¹
- B6 — within 1.5-fold, 1.32e+06 M⁻¹ s⁻¹
- B7 — within 1.5-fold, 1.29e+06 M⁻¹ s⁻¹
- B8 — far lower, 1.37e-06 M⁻¹ s⁻¹
- B9 — far lower, 1.37e-06 M⁻¹ s⁻¹
- B10 — far lower, 1.65e-09 M⁻¹ s⁻¹
- B11 — far lower, 1.74e-09 M⁻¹ s⁻¹
- B12 — far lower, 5.22e-09 M⁻¹ s⁻¹
- B13 — far lower, 1.25e-06 M⁻¹ s⁻¹
- B14 — far lower, 1.31e-06 M⁻¹ s⁻¹
- B15 — far lower, 1.35e-06 M⁻¹ s⁻¹

target: T1, rhEphA5 antigen; experiment: KD (M)
Description: as §1
Head of the field: KD (M)
as §2, §3

Point of comparison: B15, Kd 0.89 nM. Against it:
- B1 — within 1.5-fold, 0.971 nM
- B16 — within 1.5-fold, 0.985 nM
- B2 — within 1.5-fold, 0.917 nM
- B3 — within 1.5-fold, 1.05 nM
- B4 — within 1.5-fold, 0.884 nM
- B5 — within 1.5-fold, 0.968 nM
- B6 — within 1.5-fold, 1.01 nM
- B7 — within 1.5-fold, 1.1 nM
- B13 — within 1.5-fold, 1.02 nM
- B14 — within 1.5-fold, 0.968 nM
- B17 — within 1.5-fold, 0.948 nM
- B18 — within 1.5-fold, 1.1 nM
- B19 — within 1.5-fold, 1.12 nM

target: T1, rhEphA5 antigen; experiment: kd (1/s)
Description: as §1
Head of the field: kd (1/s)
as §2, §3

Point of comparison: B2, “kd” value 0.00126 s⁻¹. Against it:
- B1 — the same, 0.00126 s⁻¹
- B16 — within 1.5-fold, 0.00132 s⁻¹
- B3 — within 1.5-fold, 0.0014 s⁻¹
- B4 — within 1.5-fold, 0.00123 s⁻¹
- B5 — within 1.5-fold, 0.0013 s⁻¹
- B6 — within 1.5-fold, 0.00133 s⁻¹
- B7 — within 1.5-fold, 0.00143 s⁻¹
- B20 — within 1.5-fold, 0.00129 s⁻¹
- B21 — within 1.5-fold, 0.00114 s⁻¹
- B8 — within 1.5-fold, 0.00137 s⁻¹
- B22 — within 1.5-fold, 0.00127 s⁻¹
- B9 — within 1.5-fold, 0.0014 s⁻¹
- B12 — 270-fold higher, 0.341 s⁻¹
- B23 — 170-fold higher, 0.209 s⁻¹
- B24 — 230-fold higher, 0.285 s⁻¹
- B13 — within 1.5-fold, 0.00128 s⁻¹
- B14 — the same, 0.00126 s⁻¹
- B17 — within 1.5-fold, 0.00125 s⁻¹
- B18 — within 1.5-fold, 0.00137 s⁻¹
- B19 — within 1.5-fold, 0.00139 s⁻¹
- B15 — within 1.5-fold, 0.0012 s⁻¹

Source: patent US12662541B2, “Antibody-drug conjugates against the receptor tyrosine kinase EphA5” (Rutgers, The State University of New Jersey, priority 2021, dated 2026)
